Measurements: article PMC4894640, “RAB-10 Promotes EHBP-1 Bridging of Filamentous Actin and Tubular Recycling Endosomes” (PLoS Genetics, 2016)

Biological target: F-actin (polymerized non-muscle actin) (UniProt P60709 1-375)
Experiment: co-sedimentation; GST fusion protein incubated with 40 ul freshly polymerized non-muscle actin (21 uM F-actin) or F-actin buffer alone, 30 min at room temperature, 150,000 x g 1.5 h at 24 C; supernatant and pellet on SDS-PAGE, coomassie or western blot, densitometry
Conditions: both partners purified

B1: GST-EHBP-1(260-510aa) (domain or fragment, C. elegans, UniProt G5ECW3 260-510, looked up)
chain: APAPIATNRHSRSSRASTEEKASTTIEFRVDSNSRHVPVTAIATPYYLQSGTMSRGRSNSPRAPSRDAVPQPIDGETLLSWCQRVTNGYSHVKVNDFMKSWNNGLALCAVLHSYRPDLIGDYETLDISNNMSGRISNIQRALDSLTLIGITEVPTVDMFLTPDRKQIEFLLQHLRRIFEGFDEGSTPASASDHRISRTFGINESEEKVVAMITEIRNQKDLEEAVDYRHIPDEVPVTPQLASRNPALNQPT
notes: C. elegans EHBP-1, central calponin homology (CH) domain, residues 260-510; Cloned into pGEX-2T modified with a Gateway cassette; also called GST-CH; GST-EHBP-1-CH (aa260-510); source: E. coli ArcticExpress, purified (glutathione-Sepharose 4B, eluted with glutathione); held on glutathione beads for the pull-down
P/S ratio (pellet/supernatant) with actin filaments: ~80%
